IntAct's records for PubMed 18555782

B1: Heat shock protein homolog SSE1 (Saccharomyces cerevisiae), P32589 (parent)
chain: MSTPFGLDLGNNNSVLAVARNRGIDIVVNEVSNRSTPSVVGFGPKNRYLGETGKNKQTSNIKNTVANLKRIIGLDYHHPDFEQESKHFTSKLVELDDKKTGAEVRFAGEKHVFSATQLAAMFIDKVKDTVKQDTKANITDVCIAVPPWYTEEQRYNIADAARIAGLNPVRIVNDVTAAGVSYGIFKTDLPEGEEKPRIVAFVDIGHSSYTCSIMAFKKGQLKVLGTACDKHFGGRDFDLAITEHFADEFKTKYKIDIRENPKAYNRILTAAEKLKKVLSANTNAPFSVESVMNDVDVSSQLSREELEELVKPLLERVTEPVTKALAQAKLSAEEVDFVEIIGGTTRIPTLKQSISEAFGKPLSTTLNQDEAIAKGAAFICAIHSPTLRVRPFKFEDIHPYSVSYSWDKQVEDEDHMEVFPAGSSFPSTKLITLNRTGDFSMAASYTDITQLPPNTPEQIANWEITGVQLPEGQDSVPVKLKLRCDPSGLHTIEEAYTIEDIEVEEPIPLPEDAPEDAEQEFKKVTKTVKKDDLTIVAHTFGLDAKKLNELIEKENEMLAQDKLVAETEDRKNTLEEYIYTLRGKLEEEYAPFASDAEKTKLQGMLNKAEEWLYDEGFDSIKAKYIAKYEELASLGNIIRGRYLAKEEEKKQAIRSKQEASQMAAMAEKLAAQRKAEAEKKEEKKDTEGDVDMD

Variants of: B1
Details: with hsp71_yeast SSA1, P10591
hsp71_yeast SSA1, P10591, sequence (P10591 whole entry): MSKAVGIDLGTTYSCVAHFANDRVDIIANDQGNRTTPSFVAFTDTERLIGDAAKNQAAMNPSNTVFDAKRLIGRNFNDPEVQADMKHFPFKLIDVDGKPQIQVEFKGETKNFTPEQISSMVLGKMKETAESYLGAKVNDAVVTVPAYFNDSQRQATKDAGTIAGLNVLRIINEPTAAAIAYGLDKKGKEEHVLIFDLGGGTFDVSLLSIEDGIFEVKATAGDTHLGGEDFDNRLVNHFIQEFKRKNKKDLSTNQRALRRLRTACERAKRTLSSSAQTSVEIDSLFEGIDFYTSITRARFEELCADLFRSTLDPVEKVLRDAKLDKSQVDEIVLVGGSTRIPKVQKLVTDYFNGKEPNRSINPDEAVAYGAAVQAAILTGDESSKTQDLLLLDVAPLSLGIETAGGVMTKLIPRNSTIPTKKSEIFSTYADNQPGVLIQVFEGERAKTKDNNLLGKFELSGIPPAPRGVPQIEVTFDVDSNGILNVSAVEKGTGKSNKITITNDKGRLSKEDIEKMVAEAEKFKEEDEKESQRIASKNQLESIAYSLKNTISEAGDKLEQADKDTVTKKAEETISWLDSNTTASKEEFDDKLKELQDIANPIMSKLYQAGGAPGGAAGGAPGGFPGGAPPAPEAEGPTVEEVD

Variant | effect of a mutation on the interaction
N572Y;E575A | decreasing interaction
D396A | decreasing interaction
T365V;N367S | decreasing interaction
L489A;H490A | decreasing interaction

Next, values leading:

effect of a mutation on the interaction | Variant
decreasing interaction | E554A;M557S;L558S
decreasing interaction | A280T;N281A
decreasing interaction | F392A;F394A
